In patent publication US20230002480A1:

What was measured:
[1] = target: HIV-1 93TH057 gp120 coree (HIV-1); experiment: PDB 5te6 structure, PISA interface
[2] = target: HIV-1 Env of pseudovirus Du422.1 (clade C) (HIV-1); experiment: cell-based or functional assay
[3] = target: HIV-1 Env of pseudovirus X2088_c9 (clade G) (HIV-1); experiment: cell-based or functional assay
[4] = target: HIV-1 Env of pseudovirus 6545.v4.c1 (HIV-1); experiment: cell-based or functional assay
[5] = target: HIV-1 Env of pseudovirus Q259.d2.17 (clade A) (HIV-1); experiment: cell-based or functional assay
[6] = target: HIV-1 Env of pseudovirus 3103.v3.c10 (clade ACD) (HIV-1); experiment: cell-based or functional assay
[7] = target: HIV-1 Env of pseudovirus PVO.4 (clade B) (HIV-1); experiment: cell-based or functional assay
[8] = target: HIV-1 Env of pseudovirus CNE20 (clade BC) (HIV-1); experiment: cell-based or functional assay
[9] = target: HIV-1 Env of pseudovirus 62357_14_D3_4589 (clade B, T/F) (HIV-1); experiment: cell-based or functional assay
[10] = target: HIV-1 Env of pseudovirus AC10.0.29 (clade B) (HIV-1); experiment: cell-based or functional assay
[11] = target: HIV-1 Env of pseudovirus 3016.v5.c45 (clade D) (HIV-1); experiment: cell-based or functional assay
[12] = target: HIV-1 Env of pseudovirus X1254_c3 (clade G) (HIV-1); experiment: cell-based or functional assay
[13] = target: HIV-1 Env of pseudovirus 191955_A11 (clade A, T/F) (HIV-1); experiment: cell-based or functional assay
[14] = target: HIV-1 Env of pseudovirus 6952.v1.c20 (clade CD) (HIV-1); experiment: cell-based or functional assay
[15] = target: HIV-1 Env of pseudovirus Ce1172_H1 (clade C, T/F) (HIV-1); experiment: cell-based or functional assay
[16] = target: HIV-1 Env of pseudovirus BJOX028000.10.3 (clade CRF01_AE, T/F) (HIV-1); experiment: cell-based or functional assay
[17] = target: HIV-1 Env of pseudovirus Du172.17 (clade C) (HIV-1); experiment: cell-based or functional assay
[18] = target: HIV-1 Env of pseudovirus CAP210.2.00.E8 (clade C) (HIV-1); experiment: cell-based or functional assay
[19] = target: MuLV Env pseudovirus (negative control) (MuLV); experiment: cell-based or functional assay
[20] = target: HIV-1 Env of pseudovirus R1166.c01 (clade CRF01_AE) (HIV-1); experiment: cell-based or functional assay
[21] = target: HIV-1 Env of pseudovirus T250-4 (clade CRF02_AG) (HIV-1); experiment: cell-based or functional assay
[22] = target: HIV-1 Env of pseudovirus 620345.c01 (clade CRF01_AE) (HIV-1); experiment: cell-based or functional assay
[23] = target: HIV-1 Env of pseudovirus Ce1086_B2 (clade C, T/F) (HIV-1); experiment: cell-based or functional assay
[24] = target: monomeric HIV-1 Ba-L gp120 (HIV-1 Ba-L); experiment: retention on gp120 affinity column
[25] = target: HIV-1 93TH057 gp120 coree (HIV-1); experiment: PDB 3ngb structure, PISA interface

N6 Fab
Ratio of OD/ID buried surface area [1]: 7.58
buried surface area, CDR H1 [1]: 38 Å^2
buried surface area, CDR H2 [1]: 621 Å^2
buried surface area, CDR L1 [1]: 43 Å^2
buried surface area, CDR L2 [1]: 0 Å^2
buried surface area, CDR L3 [1]: 172 Å^2
buried surface area, CDRH3 [1]: 123 Å^2
buried surface area, Fab heavy and light chain total [1]: 1180 Å^2
buried surface area, Fab heavy chain total [1]: 928 Å^2
buried surface area, Fab light chain total [1]: 251 Å^2
buried surface area, gp120 CD4 binding loop of OD [1]: 206 Å^2
buried surface area, gp120 Loop D of OD [1]: 332 Å^2
buried surface area, gp120 Loop V5 of OD [1]: 339 Å^2
buried surface area, gp120 inner domain (ID) [1]: 132 Å^2
buried surface area, gp120 outer domain (OD) [1]: 1000 Å^2
buried surface area, gp120 total [1]: 1130 Å^2
buried surface area, heavy chain FWR [1]: 146 Å^2
buried surface area, light chain FWR [1]: 36 Å^2

N49P7-54TY (antibody)
IC50, titer in TZM.bl cells [2]: 0.402 µg/mL
IC80, titer in TZM.bl cells [2]: 2.02 µg/mL
MPI [2]: 96
IC50, titer in TZM.bl cells [3]: 0.172 µg/mL
IC80, titer in TZM.bl cells [3]: 0.572 µg/mL
MPI [3]: 100
IC50, titer in TZM.bl cells [4]: 3.01 µg/mL
IC80, titer in TZM.bl cells [4]: > 25 µg/mL
MPI [4]: 74
IC50, titer in TZM.bl cells [5]: 0.132 µg/mL
IC80, titer in TZM.bl cells [5]: 1.13 µg/mL
MPI [5]: 95
IC50, titer in TZM.bl cells [6]: 0.151 µg/mL
IC80, titer in TZM.bl cells [6]: 0.55 µg/mL
MPI [6]: 100
IC50, titer in TZM.bl cells [7]: 0.079 µg/mL
IC80, titer in TZM.bl cells [7]: 0.314 µg/mL
MPI [7]: 100
IC50, titer in TZM.bl cells [8]: 0.046 µg/mL
IC80, titer in TZM.bl cells [8]: 0.16 µg/mL
MPI [8]: 100
IC50, titer in TZM.bl cells [9]: 0.055 µg/mL
IC80, titer in TZM.bl cells [9]: 0.192 µg/mL
MPI [9]: 100
IC50, titer in TZM.bl cells [10]: > 25 µg/mL
IC80, titer in TZM.bl cells [10]: > 25 µg/mL
MPI [10]: 40
IC50, titer in TZM.bl cells [11]: 0.206 µg/mL
IC80, titer in TZM.bl cells [11]: 1.91 µg/mL
MPI [11]: 92
IC50, titer in TZM.bl cells [12]: 0.145 µg/mL
IC80, titer in TZM.bl cells [12]: 0.599 µg/mL
MPI [12]: 100
IC50, titer in TZM.bl cells [13]: 3.04 µg/mL
IC80, titer in TZM.bl cells [13]: > 25 µg/mL
MPI [13]: 72
IC50, titer in TZM.bl cells [14]: > 25 µg/mL
IC80, titer in TZM.bl cells [14]: > 25 µg/mL
MPI [14]: 20
IC50, titer in TZM.bl cells [15]: > 25 µg/mL
IC80, titer in TZM.bl cells [15]: > 25 µg/mL
MPI [15]: 23
IC50, titer in TZM.bl cells [16]: 0.009 µg/mL
IC80, titer in TZM.bl cells [16]: 0.044 µg/mL
MPI [16]: 100
IC50, titer in TZM.bl cells [17]: 0.124 µg/mL
IC80, titer in TZM.bl cells [17]: 0.529 µg/mL
MPI [17]: 100
IC50, titer in TZM.bl cells [18]: 0.691 µg/mL
IC80, titer in TZM.bl cells [18]: 3.33 µg/mL
MPI [18]: 97
IC50, titer in TZM.bl cells [19]: > 25 µg/mL
IC80, titer in TZM.bl cells [19]: > 25 µg/mL
MPI [19]: 0
IC50, titer in TZM.bl cells [20]: 0.131 µg/mL
IC80, titer in TZM.bl cells [20]: 0.47 µg/mL
MPI [20]: 100
IC50, titer in TZM.bl cells [21]: 1.02 µg/mL
IC80, titer in TZM.bl cells [21]: 19.6 µg/mL
MPI [21]: 83
IC50, titer in TZM.bl cells [22]: > 25 µg/mL
IC80, titer in TZM.bl cells [22]: > 25 µg/mL
MPI [22]: 0
IC50, titer in TZM.bl cells [23]: 0.067 µg/mL
IC80, titer in TZM.bl cells [23]: 0.339 µg/mL
MPI [23]: 100

N49P7YTE (antibody)
IC50, titer in TZM.bl cells [2]: 13.2 µg/mL
IC80, titer in TZM.bl cells [2]: > 50 µg/mL
MPI [2]: 76
IC50, titer in TZM.bl cells [3]: 0.329 µg/mL
IC80, titer in TZM.bl cells [3]: 1.06 µg/mL
MPI [3]: 100
IC50, titer in TZM.bl cells [4]: > 50 µg/mL
IC80, titer in TZM.bl cells [4]: > 50 µg/mL
MPI [4]: 45
IC50, titer in TZM.bl cells [5]: 5.34 µg/mL
IC80, titer in TZM.bl cells [5]: 44.1 µg/mL
MPI [5]: 82
IC50, titer in TZM.bl cells [6]: 0.322 µg/mL
IC80, titer in TZM.bl cells [6]: 0.583 µg/mL
MPI [6]: 100
IC50, titer in TZM.bl cells [7]: 0.088 µg/mL
IC80, titer in TZM.bl cells [7]: 0.394 µg/mL
MPI [7]: 100
IC50, titer in TZM.bl cells [8]: 0.11 µg/mL
IC80, titer in TZM.bl cells [8]: 0.317 µg/mL
MPI [8]: 99
IC50, titer in TZM.bl cells [9]: 0.039 µg/mL
IC80, titer in TZM.bl cells [9]: 0.173 µg/mL
MPI [9]: 100
IC50, titer in TZM.bl cells [10]: > 50 µg/mL
IC80, titer in TZM.bl cells [10]: > 50 µg/mL
MPI [10]: 28
IC50, titer in TZM.bl cells [11]: 1.15 µg/mL
IC80, titer in TZM.bl cells [11]: 9.65 µg/mL
MPI [11]: 89
IC50, titer in TZM.bl cells [12]: 26.2 µg/mL
IC80, titer in TZM.bl cells [12]: > 50 µg/mL
MPI [12]: 59
IC50, titer in TZM.bl cells [13]: 39 µg/mL
IC80, titer in TZM.bl cells [13]: > 50 µg/mL
MPI [13]: 56
IC50, titer in TZM.bl cells [14]: > 50 µg/mL
IC80, titer in TZM.bl cells [14]: > 50 µg/mL
MPI [14]: 13
IC50, titer in TZM.bl cells [15]: > 50 µg/mL
IC80, titer in TZM.bl cells [15]: > 50 µg/mL
MPI [15]: 12
IC50, titer in TZM.bl cells [16]: 0.018 µg/mL
IC80, titer in TZM.bl cells [16]: 0.155 µg/mL
MPI [16]: 100
IC50, titer in TZM.bl cells [17]: 0.283 µg/mL
IC80, titer in TZM.bl cells [17]: 0.953 µg/mL
MPI [17]: 100
IC50, titer in TZM.bl cells [18]: 3.11 µg/mL
IC80, titer in TZM.bl cells [18]: 13.9 µg/mL
MPI [18]: 99
IC50, titer in TZM.bl cells [19]: > 50 µg/mL
IC80, titer in TZM.bl cells [19]: > 50 µg/mL
MPI [19]: 4
IC50, titer in TZM.bl cells [20]: 0.232 µg/mL
IC80, titer in TZM.bl cells [20]: 0.782 µg/mL
MPI [20]: 100
IC50, titer in TZM.bl cells [21]: > 50 µg/mL
IC80, titer in TZM.bl cells [21]: > 50 µg/mL
MPI [21]: 43
IC50, titer in TZM.bl cells [22]: > 50 µg/mL
IC80, titer in TZM.bl cells [22]: > 50 µg/mL
MPI [22]: 0
IC50, titer in TZM.bl cells [23]: 0.113 µg/mL
IC80, titer in TZM.bl cells [23]: 0.53 µg/mL
MPI [23]: 99

Synagis (antibody)
recovery from gp120 affinity column [24]: < 1%

VRC01 Fab
Ratio of OD/ID buried surface area [25]: 9.68
buried surface area, CDR H1 [25]: 3 Å^2
buried surface area, CDR H2 [25]: 598 Å^2
buried surface area, CDR L1 [25]: 50 Å^2
buried surface area, CDR L2 [25]: 0 Å^2
buried surface area, CDR L3 [25]: 132 Å^2
buried surface area, CDRH3 [25]: 160 Å^2
buried surface area, Fab heavy and light chain total [25]: 1200 Å^2
buried surface area, Fab heavy chain total [25]: 897 Å^2
buried surface area, Fab light chain total [25]: 306 Å^2
buried surface area, gp120 CD4 binding loop of OD [25]: 188 Å^2
buried surface area, gp120 Loop D of OD [25]: 322 Å^2
buried surface area, gp120 Loop V5 of OD [25]: 301 Å^2
buried surface area, gp120 inner domain (ID) [25]: 107 Å^2
buried surface area, gp120 outer domain (OD) [25]: 1040 Å^2
buried surface area, gp120 total [25]: 1140 Å^2
buried surface area, heavy chain FWR [25]: 136 Å^2
buried surface area, light chain FWR [25]: 124 Å^2
